Results on two molecules are retold here after patent US20170313746A1 (published 2017).

This experiment has as its target lactate dehydrogenase (LDH) in lysates of NCI-H460 cells (human, UniProt P00338 2-332). The experiment can be described thus: cell-based or functional assay.

Non-standard residues stand in square brackets, D forms with d. Phe(4-guanidino) = N=C(N)Nc1ccc(C[C@H](N)C(=O)O)cc1

B1: HILR-030 (cyclo-[Pro-Arg-Gly-Pro-Arg-Pro-Val-Trp-Trp-Gpa-Gpa-Trp-Trp-Gpa-Gpa-Trp-Trp]) (peptide)
peptide: cyclo(PRGPRPVWW[Phe(4-guanidino)][Phe(4-guanidino)]WW[Phe(4-guanidino)][Phe(4-guanidino)]WW)
SMILES: CC(C)[C@@H]1NC(=O)[C@@H]2CCCN2C(=O)[C@H](CCCNC(=N)N)NC(=O)[C@@H]2CCCN2C(=O)CNC(=O)[C@H](CCCNC(=N)N)NC(=O)[C@@H]2CCCN2C(=O)[C@H](Cc2c[nH]c3ccccc23)NC(=O)[C@H](Cc2c[nH]c3ccccc23)NC(=O)[C@H](Cc2ccc(NC(=N)N)cc2)NC(=O)[C@H](Cc2ccc(NC(=N)N)cc2)NC(=O)[C@H](Cc2c[nH]c3ccccc23)NC(=O)[C@H](Cc2c[nH]c3ccccc23)NC(=O)[C@H](Cc2ccc(NC(=N)N)cc2)NC(=O)[C@H](Cc2ccc(NC(=N)N)cc2)NC(=O)[C@H](Cc2c[nH]c3ccccc23)NC(=O)[C@H](Cc2c[nH]c3ccccc23)NC1=O
For the molecule B1, the “IC50 of LDH activity (LDH activity kit on lysates of treated NCI-H460 cells)” value stood at 22 µM. As for PRGPRPVWWRRWWRRWW (head-to-tail cyclic peptide) [HILR-025 (cyclo-[Pro-Arg-Gly-Pro-Arg-Pro-Val-Trp-Trp-Arg-Arg-Trp-Trp-Arg-Arg-Trp-Trp])], the figure is 16 µM.
